Laboratory results reported in patent US20210380703A1.
Where a chain is given by its changes, count along the chain named.

B1: 370_E03 (antibody, V domains shown)
VH: EVQLLESGGGLVQPGGSLRLSCAASGFTFSSYGMNWVRQAPGKGLEWVSSINYNGGYKGYADSVKGRFTISRDNSKNTLYLQMNSLRAEDTAVYYCARSANWHDTALDYWGQGTLVTVSS
VL: DIQMTQSPSSLSASVGDRVTITCRASQSILTYLNWYQQKPGKAPKLVIYYASNRASGVPSRFSGSGSGTDFTLTISSLQPEDFATYYCQQSYDSPLTFGGGTKVEIK
B2: 370_H09 (antibody, V domains shown)
VH: B1 VH with S49A, S50N, K58T, G59S
VL: B1 VL with L30V, T31S, L33V, V47L, Y50A, S52T, N53S, S94N
B3: 371_F06 (antibody, V domains shown)
VH: B1 VH with S30D, G33S, S49A, S50N, K58T, G59S
VL: B1 VL with L30V, T31S, Y50A, S52T, N53S, A55H, D93N
B4: 373_B06 (antibody, V domains shown)
VH: B1 VH with S31D, G33S, S49A, S50G, K58T
VL: B1 VL with L33V, Y50A, S52T, N53S, A55H, D93E
B5: 371_F01 (antibody, V domains shown)
VH: B1 VH with G33S, S49A, S50G, K58T
VL: B1 VL with L33V, Y50A, S52T, N53S, R54L, D93N, S94N
B6: 370_G11 (antibody, V domains shown)
VH: B1 VH with G33S, S49A, G55S, K58T, G59S, A106H
VL: B1 VL with L30V, T31S, Y50A, S52T, N53S, D93S, S94L
B7: 370_E06 (antibody, V domains shown)
VH: B1 VH with S50G, G55S, G59S
VL: B1 VL with T31S, Y50A, A51T, S52T, N53S, R54L, S94T
B8: 370_G03 (antibody, V domains shown)
VH: B1 VH with G33S, S49A, S50N, K58T
VL: B1 VL with L33V, Y50A, A51T, S52T, N53S, D93N, S94N
B9: 371_A03 (antibody, V domains shown)
VH: B1 VH with S31D, S49A, S50N, K58T
VL: B1 VL with T31S, Y50A, A51T, S52T, N53S, D93E
B10: 370_G10 (antibody, V domains shown)
VH: B1 VH with S31D, S50G, G55S, K58T, G59S
VL: B1 VL with L30S, T31S, V47L, Y50V, A51V, S52N, D93E, S94N
B11: 370_G09 (antibody, V domains shown)
VH: B1 VH with S49A, S50G, G59S
VL: B1 VL with T31S, L33V, Y50A, S52T, N53S, D93E
B12: 371_F08 (antibody, V domains shown)
VH: B1 VH with S30D, S31D, G33S, S50G, K58T
VL: B1 VL with L30V, T31S, L33V, Y50A, S52T, N53S, A55H, D93E
B13: 371_A07 (antibody, V domains shown)
VH: B1 VH with S31D, G33S, S50N, G59S
VL: B1 VL with T31S, Y50A, A51T, S52T, N53S, S94L
B14: 372_F06 (antibody, V domains shown)
VH: B1 VH with S31D, S49A, S50G, G59S
VL: B1 VL with T31S, L33V, V47L, Y50A, S52T, N53S, R54L, D93E, S94T
B15: 373_B04 (antibody, V domains shown)
VH: B1 VH with S49A, S50G, G55S
VL: B1 VL with V47L, Y50A, S52T, N53S, D93E, S94T
B16: 372_D02 (antibody, V domains shown)
VH: B1 VH with N35H, S49A, S50G, K58T
VL: B1 VL with Y50A, S52T, N53S, S94N
B17: 372_B04 (antibody, V domains shown)
VH: B1 VH with S30D, S49A, S50N, K58T, G59S
VL: B1 VL with T31S, L33V, Y50A, S52T, N53S, R54L
B18: 371_H09 (antibody, V domains shown)
VH: B1 VH with S30D, G33S, S50N, K58T, G59S
VL: B1 VL with L33V, Y50A, S52T, N53S, R54L
B19: 373_C11 (antibody, V domains shown)
VH: B1 VH with G33S, S50G, G55S, K58T
VL: B1 VL with L33V, Y50A, A51V, S52T, N53S, D93E, S94T
B20: 371_A06 (antibody, V domains shown)
VH: B1 VH with S49A, S50G, K58T, G59S
VL: B1 VL with Y50A, S52T, N53S, A55H
B21: 373_B10 (antibody, V domains shown)
VH: B1 VH with S30D, S50N, K58T, G59S
VL: B1 VL with T31S, V47L, Y50A, S52T, N53S, S94L
B22: 371_B06 (antibody, V domains shown)
VH: B1 VH with S30D, G33S, S49A, S50G, G59S
VL: B1 VL with L33V, Y50A, S52T, N53S, A55H, D93N, S94L
B23: 373_C04 (antibody, V domains shown)
VH: B1 VH with G33S, S49A, S50N, G55S, K58T
VL: B1 VL with L30I, T31S, L33V, Y50A, A51V, S52T, N53S, D93N
B24: 370_F05 (antibody, V domains shown)
VH: B1 VH with S50G, G55S, K58T, G59S
VL: B1 VL with L30V, T31S, L33V, Y50A, S52T, N53S, D93E, S94T
B25: 371_B07 (antibody, V domains shown)
VH: B1 VH with S30D, G33S, S49A, S50G, K58T, G59S
VL: B1 VL with L33V, V47L, Y50A, S52T, N53S, D93E, S94L
B26: 373_A08 (antibody, V domains shown)
VH: B1 VH with S30D, S50N, K58T
VL: B1 VL with L30V, T31S, L33V, V47L, Y50A, S52T, N53S, R54L, D93S, S94L
B27: 370_G06 (antibody, V domains shown)
VH: B1 VH with S31D, N35H, K58T, G59S
VL: B1 VL with T31S, L33V, Y50A, S52T, N53S, Y92D, D93N, S94T
B28: 373_D05 (antibody, V domains shown)
VH: B1 VH with G33S, S50G, G55S
VL: B1 VL with T31S, Y50A, S52T, N53S
B29: 373_C06 (antibody, V domains shown)
VH: B1 VH with G33S, S49A, S50G, K58T
VL: B1 VL with L30V, T31S, L33V, Y50A, S52T, N53S, S94T
B30: 373_C08 (antibody, V domains shown)
VH: B1 VH with G33S, S49A, S50N, K58T, G59S
VL: B1 VL with L30I, T31S, V47L, Y50A, N53S, R54L, A55Q, D93N, S94N
B31: 370_G02 (antibody, V domains shown)
VH: B1 VH with S31D, G33S, S49A, S50N
VL: B1 VL with L30V, T31S, V47L, Y50A, S52T, N53S, A55H
B32: 371_F04 (antibody, V domains shown)
VH: B1 VH with S30D, G33S, S49A, S50G, G55S
VL: B1 VL with T31S, V47L, Y50A, S52T, N53S, A55H, D93N, S94N
B33: 372_F08 (antibody, V domains shown)
VH: B1 VH with S31D, G33S, S50N, G55S, K58T
VL: B1 VL with L33V, Y50A, S52T, N53S, S94T
B34: 370_F10 (antibody, V domains shown)
VH: B1 VH with G33S, S49A, S50G, K58T, G59S
VL: B1 VL with L30V, T31S, Y50A, S52T, N53S, D93N
B35: 373_D04 (antibody, V domains shown)
VH: B1 VH with S30D, G33S, S50G, G55S
VL: B1 VL with T31S, V47L, Y50A, S52T, N53S, A55H
B36: 371_A12 (antibody, V domains shown)
VH: B1 VH with S30D, G33S, S49A, S50G, G55S, K58T, G59S
VL: B1 VL with T31S, L33V, Y50A, S52T, N53S, R54L, S94T
B37: 371_G10 (antibody, V domains shown)
VH: B1 VH with G33S, S50G, G59S
VL: B1 VL with L30S, T31S, L33V, V47L, Y50A, S52T, N53S, A55H, Y92D
B38: 373_D01 (antibody, V domains shown)
VH: B1 VH with S30D, G33S, S50G, G55S, G59S, A106H
VL: B1 VL with T31S, L33V, Y50A, S52T, N53S
B39: 372_F03 (antibody, V domains shown)
VH: B1 VH with S49A, S50G, K58T, G59S
VL: B1 VL with T31S, Y50A, S52T, N53S, S94T
B40: 371_D09 (antibody, V domains shown)
VH: B1 VH with G33S, S50N, G55S, K58T
VL: B1 VL with Y50A, S52T, N53S, D93N, S94N
B41: 373_B12 (antibody, V domains shown)
VH: B1 VH with S30D, G55S, K58T, G59S
VL: B1 VL with L30V, T31S, L33V, V47L, Y50A, S52T, N53S
B42: 371_A08 (antibody, V domains shown)
VH: B1 VH with N35H, K58T, G59S
VL: B1 VL with T31S, Y50A, S52T, N53S, D93E, S94L
B43: 370_F07 (antibody, V domains shown)
VH: B1 VH with S30D, G33S, S50N
VL: B1 VL with T31S, V47L, Y50A, S52T, N53S, D93N, S94L
B44: 373_A10 (antibody, V domains shown)
VH: B1 VH with S50G, G55S, K58T, G59S
VL: B1 VL with T31S, Y50A, S52T, N53S, S94L
B45: 372_C07 (antibody, V domains shown)
VH: B1 VH with S31D, G33S, S50N, G55S, K58T, G59S, A106H
VL: B1 VL with T31S, Y50A, S52T, N53S, A55H, Y92D, D93N, S94T
B46: 372_A04 (antibody, V domains shown)
VH: B1 VH with S30D, G33S, S50G, G55S, K58T, G59S
VL: B1 VL with Y50A, S52T, N53S, D93E, S94T
B47: 370_H01 (antibody, V domains shown)
VH: B1 VH with G33S, S50G, G55S
VL: B1 VL with L30I, T31S, V47L, Y50A, A51V, S52T, N53S, S94T
B48: 370_E09 (antibody, V domains shown)
VH: B1 VH with S30D, S31D, Y32S, G33S, N35H, S50N, K58T, R98K
VL: B1 VL with T31S, L33V, Y50A, S52T, N53S, D93E, S94L

Molecular target: Human Fc (human)
Assay: ELISA, negative control

Row | optical density | Binder
1 | 0.361 OD | B1
2 | 0.348 OD | B2
3 | 0.289 OD | B3
4 | 0.221 OD | B4
5 | 0.41 OD | B5
6 | 0.529 OD | B6
7 | 0.375 OD | B7
8 | 0.421 OD | B8
9 | 0.354 OD | B9
10 | 0.315 OD | B10
11 | 0.393 OD | B11
12 | 0.301 OD | B12
13 | 0.336 OD | B13
14 | 0.38 OD | B14
15 | 0.176 OD | B15
16 | 0.433 OD | B16
17 | 0.333 OD | B17
18 | 0.32 OD | B18
19 | 0.171 OD | B19
20 | 0.337 OD | B20
21 | 0.174 OD | B21
22 | 0.356 OD | B22
23 | 0.157 OD | B23
24 | 0.406 OD | B24

Row | optical density | Binder
25 | 0.308 OD | B25
26 | 0.195 OD | B26
27 | 0.356 OD | B27
28 | 0.179 OD | B28
29 | 0.163 OD | B29
30 | 0.16 OD | B30
31 | 0.388 OD | B31
32 | 0.345 OD | B32
33 | 0.335 OD | B33
34 | 0.441 OD | B34
35 | 0.168 OD | B35
36 | 0.483 OD | B36
37 | 0.439 OD | B37
38 | 0.174 OD | B38
39 | 0.438 OD | B39
40 | 0.268 OD | B40
41 | 0.172 OD | B41
42 | 0.304 OD | B42
43 | 0.384 OD | B43
44 | 0.175 OD | B44
45 | 0.279 OD | B45
46 | 0.339 OD | B46
47 | 0.436 OD | B47
48 | 0.338 OD | B48
